# From patent publication US20250340623A1
# Where a chain is given by its changes, count along the chain named.
# B1: ACI-8033-4F3-Ab1 (antibody, V domains shown)
# VH: EVQLQQSGPELVKPGASVKISCKASGYTFTDYYMNWVKQSHGKSLEWIGDINPNTGTNSYNQKFKGRASLTVDKFSSAAYMELRSLTSEDSAVYYCARTGYGDPISSYYYALDYWGQGTSVTVSS
# VL: DIVMSQSPSSLAVSAGEKVTMSCKSSQSLLNSRTRKNYLAWYQQKPGQSPKLLIYWASTRESGVPDRFTGSGSGTDFTLTISSVQAEDLAVYYCKQSYNLWTFGGGTKLEIK
# B2: ACI-8033-17F5-Ab1 (antibody, V domains shown)
# VH: EVQLQQSGPELVKPGASVKISCKASGYTFTDYFMNWVKQSHGKSLEWIGDINPNIDVTNYNQKFKGKATLTVDKSSSTAYMELRSLTSEDSAVYYCARGRDYAMDFWGQGTSVTVSS
# VL: B1 VL with N99D
# B3: ACI-8033-18C11-Ab1 (antibody, V domains shown)
# VH: QVQLQQPGAELVKPGASVKMSCKAAGYTFSSYWITWVRQRPGQGLDWIGDIYPGGGVTNYNEKFKTKATLTVDTSSSTAYMQLSSLTSEDSAVYYCATAQTTFAYWGQGTLVTVSA
# VL: DVLMTQTPLSLPVSLGDQASISCRSSQNIVHNNGNTYLEWYLQKPGQSPKLLIYKVSNRFSGVPDRFSGSGSGTDFTLKISRVEAEDLGVYYCFQGSHVPRTFGGGTKLEIK
# B4: ACI-8033-19A2-Ab1 (antibody, V domains shown)
# VH: EVQLVESGGGLVQPKGSLKLSCAASGFSFNTYAMNWVRQAPGKGLEWVARIRSKSNNYATYYVDSVKDRFTISRDDSESMLYLQMNNLKTEDTALYYCVSESAYWGQGTLVTVSA
# VL: DVVMTQTPLSLPVSLGDQASISCRSSQSLVHSNGNTYLYWYLQKPGQSPKLLIYKVSNRLSGVPDRFSGSGSGTDFTLKISRVEAEDLGVYFCSQSTHVPFTFGSGTKLEIK
# B5: ACI-8033-1A12-Ab1 (antibody, V domains shown)
# VH: QVHLKQSGADLVRPGASVKLSCKASGYSFTDFYINWVKQTPGQGLEWIARIYPGNNNTFYNEKFKGKATLSAEKSSTTAYMQLSSLTSEDSAVYFCVVGYYGAWGQGTTLTVSS
# VL: B4 VL with Y37H, Y39H, L60F, V90F, F101W, S105G
# B6: ACI-7079-2501B11-Ab3 (antibody, V domains shown)
# VH: QVQLQQSGPELVKPGASVKISCKASGYAFSSFWMNWMKQRPGKGLEWIGRIYPGDGDAHYNGEFKGRATLTADKSSSTAYMQLSSLTSEDSAVYFCARKGDFYGSNYDYWGQGTTLTVSS
# VL: QAVVTQESALTTSPGETVTLTCRSSTGAVTTSNYANWVQEKPDHLFTGLIGGTNNRAPGVPARFSGSLIGDKAALTITGAQTEDEAIYFCALWYSNHLVFGGGTRLTVL
# B7: ACI-7067-1116F2-Ab1 (antibody, V domains shown)
# VH: DVQLQESGPGFVKPSQSLSLTCSVTGYSITRGFYWNWIRQFPGNKLEWMGYISDDGNSNYNPSLKNRISITRDTFKNQVFLRLNSVTTEDTATYYCTRGDLLWGQGTTLTVSS
# VL: not shown
# B8: ACI-7089-4418F6-Ab1 (antibody, V domains shown)
# VH: QVQLQQSGAELARPGASVKVSCKASGYTFTSSGISWLKHRTGQGLEWIGDIYPRSGNTYYNEKFKDKATLTADKSSSTAYMELRSLTSEDSAVYFCSSGNYWGQGTTLTVSS
# VL: DIVITQDDLSNPVTSGESVSISCRSSKSLLYKDGKTYLNWFLQRPGQSPQLLIYLMSTRASGVSDRFSGSGSGTDFTLEISRVKAEDVGVYYCQQLLEYPLTFGAGTKLELK
# B9: ACI-7067-1108H1-Ab1 (antibody, V domains shown)
# VH: EVKLVESGGGLVQPGGSMKLSCTASGFTFSDAWMNWVRQSPEKGLEWVAEIRNKAHNHATNYAESVKGRFTISGDDSKSSVYLQMNNLRAEDTGIYYCTIYSFWGQGTLVTVSA
# VL: SIVMTQTPKFLLVSAGDRVTITCKASQSVTNYVAWYHQKPGQSPKLLIYSASNRYSGVPDRFTGSGYGTDFTFTINTVQTEDLAVYFCQQDYRIPYTFGGGTKLEIK
# B10: ACI-7067-1112H8-Ab2 (antibody, V domains shown)
# VH: B9 VH with V5E, T23A, S30T, V48I, H58Y, N61Y, T71D, A90V, F103Y, Q106P
# VL: SIVMTQTPKFLLMSPGDRVTMTCTASQSVSNYVAWYQQKPGQSPKLLIYSASNRFTGVPDRFTGSGYGTDFTFTINTVQTEDMAVYFCQQDYTSPYTFGGGTKLEIK
# B11: ACI-7089-4409F1-Ab1 (antibody, V domains shown)
# VH: DVQLQESGPGLVKPSQSLSLTCSVTGYSITRGYYWNWIRQFPGNKLEWMGYISYDGSNNYNPSLRNRISITRDTSKNQFFLKLKSVTTEDTATYFCARGDSNWGQGTTLTVSA
# VL: not shown
# B12: ACI-8033-1F8-Ab1 (antibody, V domains shown)
# VH: B11 VH with R31S, Y33F, R65K, T71I, T88S, F95Y, A97V, S101V, N102D, A113S
# VL: not shown
# B13: ACI-7067-1108B11-Ab2 (antibody, V domains shown)
# VH: EVQLVESGGGLVQPKGSLKLSCAASGFTFNTYAMHWVRQAPGKGLEWVARIRSKGSNYATNYADSVKDRFTISRDDSQSMLYLQMNNLKTEDTAMYYCVRGHGSSYFSYWGQGTLVTVSA
# VL: QIVLTQSPAIMSASPGERITMTCSANSSVTYMHWYQQKSGTSPKRWIYDTSNLASGVPARFSGSGSGTSYSLTISSMEAEDAATYYCQQWKSHPPTFGAGTKLELK
# B14: ACI-7067-1111B12-Ab2 (antibody, V domains shown)
# VH: QVQLLQPGTALVMPGASVKLSCKASGYTFTTYWMHWVKQRPGQGLEWIGNINPINGGSNYNEKFKSKASLTVDKSSSTAYMQLSSLTSEDSAVYYCVIAMDYWGQGTSVTVSS
# VL: DIQMTQSPSSLSASLGERVSLTCRASQDIGISLNWFQQEPDGTIKRLIYATSSLDSGVPKRFSGNRSGSDYSLTISSLESEDFADYYCLQFASSPLTFGAGTKLELK
# Molecular target: monomeric alpha-synuclein, P37840
# Assay: SPR, captured mAb
# Settings: remark: other sources report otherwise
Kd,koff,kon,Binder
1.7 nM,0.00016 s⁻¹,97000 M⁻¹ s⁻¹,B1
2.4 nM,0.000232 s⁻¹,96600 M⁻¹ s⁻¹,B2
1.8 nM,0.000263 s⁻¹,143000 M⁻¹ s⁻¹,B3
6.2 nM,0.0828 s⁻¹,1.33e+07 M⁻¹ s⁻¹,B4
31.9 nM,0.0327 s⁻¹,1.02e+06 M⁻¹ s⁻¹,B5
2.4 nM,0.000335 s⁻¹,141000 M⁻¹ s⁻¹,B6
4.9 nM,0.000232 s⁻¹,47000 M⁻¹ s⁻¹,B7
0.1 nM,9.25e-06 s⁻¹,81800 M⁻¹ s⁻¹,B8
4.4 nM,0.000565 s⁻¹,131000 M⁻¹ s⁻¹,B9
6.3 nM,0.00158 s⁻¹,250000 M⁻¹ s⁻¹,B10
6.4 nM,0.000992 s⁻¹,154000 M⁻¹ s⁻¹,B11
24.3 nM,0.000738 s⁻¹,30400 M⁻¹ s⁻¹,B12
8.1 nM,0.00154 s⁻¹,191000 M⁻¹ s⁻¹,B13
8.1 nM,0.0014 s⁻¹,172000 M⁻¹ s⁻¹,B14

# Molecular target: alpha-synuclein fibrils, P37840
# Assay: SPR, captured mAb
# Settings: remark: other sources report otherwise
Kd,koff,kon,Binder
0.05 nM,2.24e-07 s⁻¹,4500 M⁻¹ s⁻¹,B1
8.7 nM,0.00012 s⁻¹,13700 M⁻¹ s⁻¹,B2
30.4 nM,0.000251 s⁻¹,8270 M⁻¹ s⁻¹,B3
6.7 nM,0.000119 s⁻¹,17700 M⁻¹ s⁻¹,B4
9.8 nM,6.53e-05 s⁻¹,6660 M⁻¹ s⁻¹,B5
31.8 nM,0.000347 s⁻¹,10900 M⁻¹ s⁻¹,B6
55.1 nM,0.000458 s⁻¹,8300 M⁻¹ s⁻¹,B7
0.04 nM,1.14e-05 s⁻¹,272000 M⁻¹ s⁻¹,B8
14.3 nM,0.00118 s⁻¹,271000 M⁻¹ s⁻¹,B9
18.7 nM,0.00245 s⁻¹,285000 M⁻¹ s⁻¹,B10
8.8 nM,0.00587 s⁻¹,667000 M⁻¹ s⁻¹,B11
1010 nM,0.000996 s⁻¹,983 M⁻¹ s⁻¹,B12
18.6 nM,0.00205 s⁻¹,251000 M⁻¹ s⁻¹,B13
39.2 nM,0.00101 s⁻¹,26300 M⁻¹ s⁻¹,B14
